The text below walks through data of patent US20160145334A1 (AbbVie / Abbott, published 2016).

Experiment [1] deals with T1, soluble recombinant rat NgR, amino acids 27 through 450, with 6xHis tag (rat).
T1 construct: 2a; made in HEK293F cells; also called Rat NgR 6x His; rNgR
T1 chain: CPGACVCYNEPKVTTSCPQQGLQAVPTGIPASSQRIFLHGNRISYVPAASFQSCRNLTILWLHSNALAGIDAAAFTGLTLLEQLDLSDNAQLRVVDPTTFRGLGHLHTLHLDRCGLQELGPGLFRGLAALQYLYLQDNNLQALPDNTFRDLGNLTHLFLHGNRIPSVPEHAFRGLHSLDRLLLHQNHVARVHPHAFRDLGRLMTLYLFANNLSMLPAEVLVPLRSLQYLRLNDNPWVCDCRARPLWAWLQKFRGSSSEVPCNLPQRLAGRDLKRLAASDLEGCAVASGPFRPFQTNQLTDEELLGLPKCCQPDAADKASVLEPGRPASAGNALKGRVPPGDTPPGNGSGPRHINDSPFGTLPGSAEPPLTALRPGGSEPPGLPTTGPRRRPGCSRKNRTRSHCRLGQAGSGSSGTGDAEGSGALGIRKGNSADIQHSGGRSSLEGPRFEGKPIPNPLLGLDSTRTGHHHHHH
Nature of the experiment: ELISA, rat NgR coated 0.2 µg/well. As to the method:
(§1) To determine the specificity of the monoclonal antibodies produced in Example 1, an ELISA using NgR-Fc (a fusion protein comprising amino acids Met 1 to Ser 447 of the human NgR and a human Fc fragment (R&D Systems)) and rat NgR (SEQ ID NO. 2a), was performed. Both ligands were immobilized on 96-well microtiter plates (Nunc Maxisorb; 0.2 μg/well). As a blocking reagent 2% bovine serum albumin (BSA) in Tris-HCL, pH 7.2 was used for 2 h at room temperature. The monoclonal antibodies were used in concentrations starting at 10,000 ng/ml. Bound antibodies were detected with a secondary anti-mouse antibody labeled with horseradish peroxidase (Sigma) and developed using 3,3′,5,5′-tetramethylbenzidine substrate (TMB, Pierce) under standard conditions. mAb50 and mAb51 specifically bound to human NgR. […] In similar experiments, mAb50 and mAb51 also specifically bound to a polypeptide consisting of amino acids of the rat NgR.
In general terms: In an ELISA, binding on a coated surface is turned into a signal by an enzyme label.

Experiment [2] concerns the target T2, human recombinant NgR/Fc chimera (R&D Systems, Cat. Number 1208-NG) (human, UniProt Q9BZR6 27-447).
T2 construct: range 1-447; Bought from R&D Systems; also called hNgR-Fc; human NgR-Fc; not shown: human Fc fragment
T2 sequence (looked up): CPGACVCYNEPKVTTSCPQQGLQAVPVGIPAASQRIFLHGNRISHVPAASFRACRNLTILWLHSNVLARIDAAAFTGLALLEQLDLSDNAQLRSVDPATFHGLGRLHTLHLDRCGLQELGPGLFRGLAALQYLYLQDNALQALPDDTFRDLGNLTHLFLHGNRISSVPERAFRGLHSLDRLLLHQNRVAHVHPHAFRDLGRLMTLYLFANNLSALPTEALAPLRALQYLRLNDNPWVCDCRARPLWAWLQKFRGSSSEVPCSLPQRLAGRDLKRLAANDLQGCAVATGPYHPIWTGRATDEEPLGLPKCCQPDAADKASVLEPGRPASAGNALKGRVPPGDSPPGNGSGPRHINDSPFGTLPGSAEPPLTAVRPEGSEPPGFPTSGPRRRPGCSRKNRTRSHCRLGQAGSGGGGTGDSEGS
Nature of the experiment: ELISA, human NgR-Fc coated 0.2 µg/well.

Experiment [3] concerns the target T2, human recombinant NgR/Fc chimera (R&D …). The experiment in a line: competition ELISA, human NgR-Fc coated 0.2 µg/well, blocked ligand AP-Nogo66 at 0.15 nM, AttoPhos, RFU (30min-0min). How it is done:
To further characterize the monoclonal antibodies a competition assay similar to the binding assay of Example 2 was used to test the ability of the mAbs produced in Example 1 to inhibit AP-Nogo66 binding to human NgR-Fc. Human NgR-Fc (0.2 μg/well) was immobilized on 96-well microtiter plates (Nunc Maxisorb) in 50 mM Na-carbonate buffer pH 9 over night at 4° C. followed by a 2 h blocking step with 2% BSA in Tris-HCL, pH 7.2 at room temperature. The wells received a constant concentration of AP-Nogo66 (final concentration 0.15 nM in Tris-HCL, pH 7.2 with 0.1% BSA) and increasing concentrations of the mAbs. Plates were incubated for 90 min at room temperature. During each incubation step plates were washed with washing buffer (10 mM Tris-HCl, pH7.2 and 0.05% Tween20). Binding of AP-Nogo66 was detected with the AttoPhos substrate (Roche) and the fluorescence units were measured in the Polarstar (BMG) instrument.

Experiment [4] addresses T1, soluble recombinant rat NgR, amino …. The experiment in a line: ELISA, rat NgR coated 0.2 µg/well, anti-mouse-HRP, TMB. How it is done: as §1
Experiment [5] concerns the target T2, human recombinant NgR/Fc chimera (R&D …). The experiment in a line: Biacore, antibody captured, hNgR-Fc chimera as antigen. (In SPR one partner is held on a chip, and binding of the other changes the refractive index at the surface.)
Experiment [6] has the same target. The experiment in a line: ELISA, human NgR-Fc coated 0.2 µg/well, anti-mouse-HRP, TMB. As to the method:
as §1

Experiment [7] deals with T1, soluble recombinant rat NgR, amino …. Nature of the experiment: not stated.

B1: mAb51 (antibody, IgG2a, V domains shown)
VH: QVQLQQPGAELVKPGASVKLSCKASGYTFITYWMHWMKQRPGQGLEWIGEIDPSDSYTDYNQKFKGKATLTVDKSSSTAYMQLSSLTSEDSAVYYCARGSNVLYVLDYWGQGTSVTVSS
VL: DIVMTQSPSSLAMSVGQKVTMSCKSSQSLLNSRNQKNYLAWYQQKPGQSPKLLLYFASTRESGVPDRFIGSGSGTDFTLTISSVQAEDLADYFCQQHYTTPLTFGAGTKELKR
notes: also called Antibody Clone 51; ATCC No. PTA-8384
One may read the EC50 as the concentration giving half of the maximal effect. One may read the EC50 (read off the curve) as the concentration at which the effect is half-maximal. One may read the Kd as the constant that tells how readily two partners part at equilibrium. A word on the koff: it is the first-order rate constant of dissociation. For orientation: kon means the rate constant with which the complex forms. Usually IC50 stands for the concentration that gives 50% inhibition. For the molecule B1, the EC50 in experiment [1] and in experiment [2] was under 0.02 µg/mL in each case. The “IC50 (read off the curve)” value in experiment [3] was about 2 nM. Moreover, the results for the “EC50 (read off the curve)” value in experiment [4] and in experiment [6] were about 0.03 µg/mL and about 0.006 µg/mL, respectively. Further, the Kd in experiment [5] is 0.108 nM. Further, the koff in experiment [5] amounted to 5.88e-05 s⁻¹. Also, the kon in experiment [5] was 544000 M⁻¹ s⁻¹. Further, in experiment [7], the IC50 was about 0.03 nM.
